This experiment addresses receptor for advanced glycation end products (human (endogenous in MDA-MB-231)) (UniProt Q15109).
Chain of UniProt Q15109 (Q15109 23-404): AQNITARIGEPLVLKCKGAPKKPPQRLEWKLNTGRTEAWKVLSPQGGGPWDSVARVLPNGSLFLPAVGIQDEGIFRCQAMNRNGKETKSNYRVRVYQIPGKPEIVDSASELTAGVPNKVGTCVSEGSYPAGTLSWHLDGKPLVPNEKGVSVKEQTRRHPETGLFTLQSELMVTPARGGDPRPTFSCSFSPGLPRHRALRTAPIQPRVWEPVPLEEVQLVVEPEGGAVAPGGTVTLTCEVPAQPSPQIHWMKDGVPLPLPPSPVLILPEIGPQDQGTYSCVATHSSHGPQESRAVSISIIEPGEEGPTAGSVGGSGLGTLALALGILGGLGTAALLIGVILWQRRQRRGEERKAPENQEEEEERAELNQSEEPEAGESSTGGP

As for “recombinant human Ac-APE1/Ref-1 (from UniProt P27695 1-318) (natural protein)”, the DNA fragmentation of hyperacetylated MDA-MB-231 cells treated with rh Ac-APE1/Ref-1 after pretreatment with anti-APE1/Ref-1 antibody (2 µg, 2 h), against anti-IgG treated cells was 35% and the cell viability of hyperacetylated MDA-MB-231 cells treated with rh Ac-APE1/Ref-1 after pretreatment with anti-APE1/Ref-1 antibody (2 µg, 2 h) worked out at 72.8%.

These data come from publication PMC5992149.
